In publication doi:10.1101/142505, “14-3-3 Negatively Regulates Actin Filament Formation in the Deep Branching Eukaryote Giardia lamblia” (bioRxiv, 2017):

Target: the molecule itself
Assay: native gel or EMSA; TS-actin and associated proteins eluted from StrepTactin resin with 2 mM biotin, run at once on 4-16% NativePAGE, western blot; also samples crosslinked with DSP before lysis

B1: Gl14-3-3-HA (endogenously C-terminally 3XHA tagged Gl14-3-3) (natural protein, Giardia lamblia, UniProt E2RU97 1-248, looked up)
chain: MAEAFTREDYVFMAQLNENAERYDEMVETMRKISGMEGELSDKERNLLSVAYKNVIGPRRAAWRIVSSIEAKEKGRQKPNAKRIEQIRVYRQKIEKELSDICNDILKLLQEQFVPRSTNADAKVFYYKMQGDYYRYLAEYSSGEDKEKIAGSALNAYNSAFEISQQLPPTHPIRLGLALNFSVFYYEILASPDRACELARKAFDAAITDLDKLTEESYKDSTLIMQLLRDNLNLWVTDSAGDDNAEEK
notes: the single 14-3-3 homolog of Giardia (Gl14-3-3), GL50803_6430; source: Giardia trophozoites, endogenously tagged, in lysate; not shown: 3XHA, C-terminal, kept
- stoichiometry N: 2
